{
  "source": "patent US20060121042A1",
  "target": "hEphA2 (human) (UniProt P29317)",
  "sequence (P29317 25-534 limits assumed)": "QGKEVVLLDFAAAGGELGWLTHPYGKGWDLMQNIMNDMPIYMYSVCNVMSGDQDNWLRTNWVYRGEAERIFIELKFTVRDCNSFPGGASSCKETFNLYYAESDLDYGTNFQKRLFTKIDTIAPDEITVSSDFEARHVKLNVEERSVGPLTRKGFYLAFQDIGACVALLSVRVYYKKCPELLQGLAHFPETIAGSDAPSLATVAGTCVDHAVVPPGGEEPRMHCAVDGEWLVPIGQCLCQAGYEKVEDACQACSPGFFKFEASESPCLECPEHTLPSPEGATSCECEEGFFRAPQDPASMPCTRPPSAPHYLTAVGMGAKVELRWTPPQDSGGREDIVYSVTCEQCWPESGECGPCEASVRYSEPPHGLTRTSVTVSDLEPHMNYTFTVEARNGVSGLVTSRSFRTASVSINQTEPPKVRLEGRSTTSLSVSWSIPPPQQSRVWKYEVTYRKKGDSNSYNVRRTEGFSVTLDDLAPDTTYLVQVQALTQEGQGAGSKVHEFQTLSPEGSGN",
  "experiment": "ELISA",
  "data": [
    {"binder": "3F2 (antibody, from another filing, V domains shown) VH: EVQLVESGGGVVRPGGSLRLSCAASGFTVSDYSMNWVRQAPGKGLEWIGFIRNKANAYTTEYSASVKGRFTISRDDSKNTLYLQMNSLKTEDTAVYYCTTYPRYHAMDSWGQGTMVTVSS VL: AIQLTQSPSSLSASVGDRVTITCRASQSISNNLHWYLQKPGQSPQLLIYYGFQSISGVPSRFSGSGSGTDFTLTISSLQPEDFATYYCQQANSWPLTFGGGTKLEIK", "values": [
      {"measurement": "ELISA O.D. value", "value": 0.453}
    ]}
  ]
}
